± gives the standard deviation.

The series is described as follows: collision cross section of modified peptide (TIMS, N2, iRT-aligned); higher = larger / more extended gas-phase ion. On the procedure:
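1/K0 was aligned run-wise to spiked iRT peptides and converted to CCS in N2 (Mason-Schamp). Values are the mean of 1-3 technical replicates for the most abundant feature at each charge state.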

Setting [1] is: charge state: 2, modification: Glutarylation.
[2] abbreviates: charge state: 3, modification: Glutarylation.
Setting [3] is: charge state: 3, modification: HexNAc (ST).
Where [4] appears, read: charge state: 2, modification: Acetyl (K).
The mark [5] stands for this setting: charge state: 3, modification: Acetyl (K).
The mark [6] stands for this setting: charge state: 2, modification: hydroxyisobutyryl.
[7] abbreviates: charge state: 2, modification: Methyl (K).
[8] abbreviates: charge state: 3, modification: Methyl (K).
[9] abbreviates: charge state: 2, modification: Trimethyl (K).
Where [10] appears, read: charge state: 3, modification: Trimethyl (K).
Where [11] appears, read: charge state: 2, modification: Formyl.
[12] abbreviates: charge state: 2, modification: Biotin.
[13] abbreviates: charge state: 2, modification: Phospho (Y).
Where [14] appears, read: charge state: 2, modification: Butyryl.
Where [15] appears, read: charge state: 2, modification: GlyGly (K).
[16] abbreviates: charge state: 3, modification: GlyGly (K).
[17] abbreviates: charge state: 2, modification: Nitro (Y).
[18] abbreviates: charge state: 2, modification: Dimethyl (K).
[19] abbreviates: charge state: 3, modification: Dimethyl (K).
Where [20] appears, read: charge state: 2, modification: Crotonyl.
Where [21] appears, read: charge state: 3, modification: Crotonyl.
[22] abbreviates: charge state: 2, modification: Citrullination (R).
Where [23] appears, read: charge state: 3, modification: Citrullination (R).

“DTPTSAGPNSFNKGK [_DTPTSAGPNSFNK(Gluratylation)GK_]” registered a collision cross section under setting [1] of 415.83 ± 1.8 Å² and a collision cross section under setting [2] of 444.87 ± 1.9 Å².
Sequence “LSESHPDATEDLQR [_LS(HexNAc (ST))ESHPDATEDLQR_]” yielded a collision cross section under setting [3] of 486.6 ± 0.17 Å².
Regarding LGNDFHTNKR [_LGNDFHTNK(Acetyl (K))R_], the collision cross section is, setting by setting: under setting [4], 373.86 ± 3.5 Å²; under setting [5], 444.24 ± 4 Å².
Sequence “VGEFSGANKEK [_VGEFSGANK(Gluratylation)EK_]” displayed a collision cross section under setting [1] of 364.67 ± 0.089 Å².
As to “DKALPLEAEVAPVK [_DK(Propionyl)ALPLEAEVAPVK_]”, the collision cross section (charge state: 2, modification: Propionyl) amounted to 410.19 Å².
Take “LFVGGIKEDTEEHHLR [_LFVGGIK(hydroxyisobutyryl)EDTEEHHLR_]”: the collision cross section by setting is: under setting [6], 501.81 Å²; (charge state: 3, modification: hydroxyisobutyryl) 546.81 ± 1.2 Å².
Take “ASAISIKLGSSK [_ASAISIK(Methyl (K))LGSSK_]”: the collision cross section is, setting by setting: under setting [7], 369.46 ± 0.48 Å²; under setting [8], 438.5 ± 5.9 Å².
For “GTVPDDAVEALADSLGKK [_GTVPDDAVEALADSLGK(Acetyl (K))K_]”, the collision cross section reads like this: under setting [4], 449.76 ± 3.1 Å²; under setting [5], 527.69 ± 0.69 Å².
As for “SGKFTQQDIDEAK [_SGK(Trimethyl (K))FTQQDIDEAK_]”, the collision cross section is, setting by setting: under setting [9], 408.18 ± 1.1 Å²; under setting [10], 472.62 ± 0.88 Å².
Regarding TPNLYIYSKK [_TPNLYIYSK(Formyl)K_], the collision cross section under setting [11] came to 377.67 ± 0.9 Å².
In the case of “LEKTIDDLEEK [_LEK(Trimethyl (K))TIDDLEEK_]”, the collision cross section under setting [9] came out at 402.76 ± 0.62 Å² and the collision cross section under setting [10] came to 468.63 ± 1.5 Å².
As for “DESFLGKLGGTLAR [_DESFLGK(Biotin)LGGTLAR_]”, the collision cross section was 424.81 Å² under setting [12] and 506.47 Å² (charge state: 3, modification: Biotin).
Regarding YTQVGPDHNR [_Y(Phospho (Y))TQVGPDHNR_], the collision cross section is, setting by setting: under setting [13], 363.13 ± 0.064 Å²; (charge state: 3, modification: Phospho (Y)) 430.78 Å².
In the case of “VGVEVPDVNIEGPEGKLK [_VGVEVPDVNIEGPEGK(Malonyl)LK_]”, the collision cross section (charge state: 2, modification: Malonyl) was determined as 458.25 ± 0.64 Å².
Under setting [6], “LEKTIDDLEEK [_LEK(hydroxyisobutyryl)TIDDLEEK_]” registered a collision cross section of 411.13 ± 0.32 Å².
For the sequence “SGKFTQQDIDEAK [_SGK(Acetyl (K))FTQQDIDEAK_]”, the collision cross section under setting [4] is given as 412.93 ± 2.8 Å².
Consider “ISSNFSSIIAEKLR [_ISSNFSSIIAEK(Gluratylation)LR_]”, for which the collision cross section under setting [1] amounted to 430.8 ± 0.96 Å².
As to “SPSDSGYSYETIGKTTK [_SPSDSGYSYETIGK(Butyryl)TTK_]”, the collision cross section under setting [14] turned out to be 455.62 ± 0.51 Å² and the collision cross section (charge state: 3, modification: Butyryl) was 527.5 ± 2.7 Å².
Regarding LLEQKTQESQK [_LLEQK(GlyGly (K))TQESQK_], the collision cross section by setting is: under setting [15], 410.36 ± 1.9 Å²; under setting [16], 452.18 ± 1.1 Å².
For the sequence “PGGEGPQCEKTTDVK [_PGGEGPQCEK(Acetyl (K))TTDVK_]”, the collision cross section under setting [4] is 415.43 ± 2 Å².
In turn, “LPEYPQVDDLLLR [_LPEY(Nitro (Y))PQVDDLLLR_]” registered a collision cross section under setting [17] of 424.61 ± 1.1 Å².
Take “SPSDSGYSYETIGKTTK [_SPSDSGYSYETIGK(Dimethyl (K))TTK_]”: the collision cross section is on record as 470.19 ± 1.3 Å² under setting [18] and 515.36 ± 1.6 Å² under setting [19].
GSLEKGSPEDK [_GSLEK(Acetyl (K))GSPEDK_] had a collision cross section under setting [4] of 363.99 ± 0.16 Å².
Under setting [14], LGSPSGKTGTCR [_LGSPSGK(Butyryl)TGTCR_] had a collision cross section of 373.24 ± 0.22 Å².
“LLIVSTTPYSEKDTK [_LLIVSTTPYSEK(Biotin)DTK_]” gave a collision cross section under setting [12] of 480.64 Å².
The sequence “VGIDTPDIDIHGPEGKLK [_VGIDTPDIDIHGPEGK(Methyl (K))LK_]” gave a collision cross section under setting [7] of 463.74 Å² and a collision cross section under setting [8] of 542.59 ± 0.45 Å².
IGAEVYHHLK [_IGAEVY(Nitro (Y))HHLK_]: the collision cross section reads like this: under setting [17], 375.15 ± 0.55 Å²; (charge state: 3, modification: Nitro (Y)) 440.09 ± 1.8 Å².
Regarding “TQDQISNIKYHEEFEK [_TQDQISNIK(Methyl (K))YHEEFEK_]”, the collision cross section under setting [8] is reported as 547.22 ± 0.37 Å².
As for “IINEPTAAAIAYGLDKK [_IINEPTAAAIAYGLDK(Trimethyl (K))K_]”, the collision cross section runs as follows: under setting [9], 500.2 ± 1.5 Å²; under setting [10], 559.85 ± 0.91 Å².
For “VDIDVPDVNIEGPDAKLK [_VDIDVPDVNIEGPDAK(Succinyl)LK_]”, the collision cross section is, setting by setting: (charge state: 2, modification: Succinyl) 479.51 ± 1 Å²; (charge state: 3, modification: Succinyl) 508.07 ± 2 Å².
As for “PSVGSQSNQAGQGKR [_PSVGSQSNQAGQGK(Dimethyl (K))R_]”, the collision cross section by setting is: under setting [18], 425.54 ± 3 Å²; under setting [19], 470.05 ± 1.2 Å².
Consider “AAQASDLEKIHLDEK [_AAQASDLEK(Crotonyl)IHLDEK_]”, for which the collision cross section is 464.23 ± 0.82 Å² under setting [20] and 499.02 ± 2.2 Å² under setting [21].
“ESISVSSEQLAQFR [_ES(HexNAc (ST))ISVSSEQLAQFR_]” returned a collision cross section (charge state: 2, modification: HexNAc (ST)) of 438.25 Å².
“NLVTGDHIPTPQDLPQR [_NLVT(HexNAc (ST))GDHIPTPQDLPQR_]” gave a collision cross section under setting [3] of 500.97 Å².
Where the note is “charge state: 3, modification: Methyl (R)”, “GTGRGGGGGGGGGAPR [_GTGR(Methyl (R))GGGGGGGGGAPR_]” displayed a collision cross section of 445.93 ± 3.2 Å².
The sequence “VLDSGAPIKIPVGPETLGR [_VLDSGAPIK(Crotonyl)IPVGPETLGR_]” yielded a collision cross section under setting [20] of 470.51 ± 1.1 Å² and a collision cross section under setting [21] of 511.83 ± 1.6 Å².
Take “VGIDTPDIDIHGPEGKLK [_VGIDTPDIDIHGPEGK(GlyGly (K))LK_]”: the collision cross section under setting [15] is reported as 467.27 Å² and the collision cross section under setting [16] came out at 525.5 ± 1.3 Å².
Regarding IQQELQTAKK [_IQQELQTAK(Crotonyl)K_], the collision cross section under setting [20] was determined as 386.16 ± 0.79 Å² and the collision cross section under setting [21] is listed as 431.2 ± 1.6 Å².
On to LEQVEKELLR [_LEQVEK(Crotonyl)ELLR_], for which the collision cross section under setting [20] stood at 389.19 ± 0.8 Å².
Turning to “VGYPGPSGPLGARGIPGIK [_VGYP(Hydroxyproline)GPSGPLGARGIPGIK_]”, the collision cross section (charge state: 2, modification: Hydroxyproline) came to 446.49 ± 1.1 Å² and the collision cross section (charge state: 3, modification: Hydroxyproline) stood at 508.9 ± 31 Å².
Turning to “VPTTEKPTVTVNFR [_VPTTEK(Crotonyl)PTVTVNFR_]”, the collision cross section is reported as 427.61 ± 0.55 Å² under setting [20] and 510.39 Å² under setting [21].
The sequence VNIGQGSHPQKVK [_VNIGQGSHPQK(Formyl)VK_] gave a collision cross section under setting [11] of 425.2 ± 1.4 Å² and a collision cross section (charge state: 3, modification: Formyl) of 472.74 ± 2.1 Å².
For “LTEKELAEAASK [_LTEK(Gluratylation)ELAEAASK_]”, the collision cross section stood at 395.13 ± 2.6 Å² under setting [1] and 453.47 ± 1.2 Å² under setting [2].
Regarding “GSGLGARGSSYGVTSTESYK [_GSGLGAR(Citrullination (R))GSSYGVTSTESYK_]”, the collision cross section is 458.29 ± 0.18 Å² under setting [22] and 548.1 Å² under setting [23].
Consider “LTEKELAEAASK [_LTEK(Acetyl (K))ELAEAASK_]”, for which, under setting [4], the collision cross section is listed as 387.12 ± 0.45 Å².
In turn, “GYDVIAQAQSGTGK [_GY(Nitro (Y))DVIAQAQSGTGK_]” registered a collision cross section under setting [17] of 387.17 ± 0.17 Å².
Turning to “VDIDVPDVNIEGPDAKLK [_VDIDVPDVNIEGPDAK(Gluratylation)LK_]”, the collision cross section turned out to be 479.85 ± 0.49 Å² under setting [1] and 509.66 ± 1.3 Å² under setting [2].
Under setting [12], TLQKQSVVYGGK [_TLQK(Biotin)QSVVYGGK_] had a collision cross section of 406.33 Å².
Turning to “YGRGQLNYPLPDFSK [_YGR(Citrullination (R))GQLNYPLPDFSK_]”, the collision cross section is, setting by setting: under setting [22], 439.93 ± 0.95 Å²; under setting [23], 492.79 Å².
Regarding “SGKFTQQDIDEAK [_SGK(Gluratylation)FTQQDIDEAK_]”, under setting [1], the collision cross section worked out at 415.95 ± 0.14 Å².
As for GSELQNYFTK [_GSELQNY(Phospho (Y))FTK_], the collision cross section under setting [13] was 373.39 ± 0.68 Å².
Sequence “VLTANSNPSSPSAAKR [_VLTANSNPSSPSAAK(Acetyl (K))R_]” registered a collision cross section under setting [4] of 425 ± 2.5 Å² and a collision cross section under setting [5] of 527.55 ± 2.3 Å².
As to “DAEAAEATAEGALKAEK [_DAEAAEATAEGALK(Methyl (K))AEK_]”, the collision cross section is, setting by setting: under setting [7], 456.59 ± 2.6 Å²; under setting [8], 536.13 ± 1.5 Å².
Under setting [1], “ALLQAKASGK [_ALLQAK(Gluratylation)ASGK_]” showed a collision cross section of 353.63 ± 0.71 Å².
Same read-out and setting: the figure for TTEETSKPK [_TTEETSK(Gluratylation)PK_] is 352.76 ± 0.56 Å².
On to LDHLAEKFR [_LDHLAEK(GlyGly (K))FR_], for which the collision cross section came to 374.05 ± 1.1 Å² under setting [15] and 449.01 ± 1.6 Å² under setting [16].
